The data set can be described thus: soluble fraction after stress (log2 fold change); higher = more stays soluble; pooled small domains, quantitative proteomics. As to conditions: stress: 50 degC. The essentials:
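Each library was heated to 50°C as a stress step. The libraries, made up of small protein domains, were pooled and analysed at high throughput by quantitative proteomics. The reported value is the base-two logarithm of the fold change in each protein's soluble amount after stress, taken as a measure of aggregation propensity. The higher the value, the more protein stays in solution.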

Consider “HMNPMRYLVVPSQETETWKEYLVSKEWLERKYRIETEGDNRAIPLSNLFPKIVPIELSNLEIIEKEAFS”, for which the “soluble fraction (log2)” value was -0.24.
Consider “HMVTIYQRIMLVLEDKQVSVNALSKLVDMSQTTLNTQLKGERTLSANVVAKVLVAYPDVSAEWLMRGVGTM”, for which the “soluble fraction (log2)” value amounted to 0.362.
As for “HMSNWYKNNETDQIWWKDTPDSVGEWLFSFDKKQVFNMFADYPHNLTPEQKKIFDEENPEWSDRP”, the “soluble fraction (log2)” value was -0.328.
Turning to “HMTSHPTHTILDGKVHVFMRDGSPFWWGGFHFKGKYLRTSTKQKNLDSAKTIAQQWYFQKQTEIASGE”, the “soluble fraction (log2)” value was -2.67.
For “HMVSSYTMAIQINGKLRATHDFSVDTSQEDIKKIIINLPAIQKYINGVEIKKFIIVPQKIVNIV” the value was -2.52; for “HMSFPDTYFKGNKVIGLSYNDLKKFLNNAGYSKFDEEVEEWGEKRVSIEDDMVDFYLEDDKVVSI”, -0.233.
On to “HMTPNATWQDDAQNLLRDLIQHQPVLVQISAAKRLRDQAEQISRITGGETVTREHVEAAGHALGMGVT”, for which the “soluble fraction (log2)” value was determined as 0.0847.
“HMPADHYEVLGIARDADAAEVKRAYRRLARESHPDANHGDSGAEVRFKAVSAAYEVLSDPERRARYDRFGH”: the “soluble fraction (log2)” value is -0.00211.
Regarding “HMKEKLGEFENVFLSVDELQKLKSKLGAETESYIERLSNYIASSGKKYKSHYATILSWTQKDTK”, the “soluble fraction (log2)” value was -0.462.
“HMDNTSNVEKTLRFIRQRGKVSRKEVETLLGSSKFPAISALNELLAENKIVKTGSGPAVRYSVS”: the “soluble fraction (log2)” value was -0.0887.
Consider “HMELLSVPSRLGTFFLGGEAGHIIRLYLPGDPTPRIAEHETPVLSEARRQLLEYLAGRRTAFSFPL”, for which the “soluble fraction (log2)” value is -0.139.
Turning to “HMKQQAYEQGKAAYQSGDWLRAVTQLGQVKEAGEKNGEVDHLLGNAYMKLGQFESAAYAYNSALEDVA”, the “soluble fraction (log2)” value is 0.269.
For the sequence “HMQGATVYIKSDDIGKTTNEQGSFNFDKLKKNRYTLEISFIGYETKNLQAYTDRENIVQLNRKS”, the “soluble fraction (log2)” value is 0.248.
For “HMARGRETILLVEDEPAVRGLVHATLRLHGYTVLEARHGIEALLTSTKFVGPIHLLLTDVVMPQMS” the value was 0.182; for “HMGPRKAGSEATRQKILDAAEILFAERGFHSVSVRDITTEAGVDVALINYHFGSKQLLFETVFMRR”, -0.331; for “HMKRTKLEEATEWLRDRLSDGVKYNGEELLREGESADMARRTLRRAAQELGVIIERERGARGRWFWSLP”, -0.515.
For “HMYFDDEELDTYKGRASNAYSPDETAQFEEVMTTMRPDEVAAWLRSLQLRGINLPDELKDEAIMLVE” the value was -0.0866; for “HMGGEEINMINLVGLSQSEAENQLAKLKLKIGQVTAEYSDKPSGTVLKQSISANNKVKKGADIDIVVSKG”, 0.126; for “HMVPPVVRTIYGAGGKMTATFLFPGGYEVDAASGAELPGKYRVESISLDQVVLTDKDGNRVPVGFSSVAPT”, 0.0614.
Next, “HMPKNVEVPNVVGLSLPMAKLRLTQLGLHIVVRDSVWSETGQPNTILDQDPQPGKKIKPESTVYVKVN”: -0.0939.
As for “HMPKHHIESVIPENFAGERLDKVLAVLWGTFSRAQLTRWIRDGSLLLDGHKVKPNTKVDGSEKIVLQAEVA”, the “soluble fraction (log2)” value is -0.891.
With “HMEDKIIVTVPGEYHLERIDRFLAANLEEDLSRSLIQRYIRENLITVNGEAVRANYKVKTDDEILITFPQ”, the “soluble fraction (log2)” value is -0.603.
For “HMEANPLTDREKEVLELVADGKNTKEIAQELSIKSGTVRNYISMILEKLEVKNRIEAITRSKEKGWF”, the “soluble fraction (log2)” value came to 0.144.
On to “HMQKAQEYILVDIKGEVQTPGVYKLPVNSRVIDAIEASGGLTKKAVTTYINLSKTLKDENVIIINKKSEL”, for which the “soluble fraction (log2)” value was -0.2.
As for “HMLLNPFERLTERELEIADLYAKGYGNLEIANFLSIKQNTVSTYKKRIFEKLGIDNLVELIELIKNY”, the “soluble fraction (log2)” value worked out at 0.148.
For the sequence “HMHPDHRTATVPDAAAGRRFDAVLAELFPQFSRSKLTTWIKSGEVLLNGEVPRPRDAVVGGETVSLNVVL”, the “soluble fraction (log2)” value is -0.275.
As to “HMKELTELIEKIKLRRLELGLSYQELSDLTGINKSTLQRYETGFIKKVPINQVQIIAKALNVTPGYLMG”, the “soluble fraction (log2)” value was -0.28.
Consider “HMKSLAQELVDALGDRIRDGRLKVGDKLPSEAAIEAQYGVSRTVVREAISRLQAAGLVVTRHGIGTFIVGI”, for which the “soluble fraction (log2)” value is -0.804.
On to “HMAGGNHPTRLELLDSAAHIAERDGTSALTVDAITKSAGHAKGTFYIHFDDRADLLVEMHRR”, for which the “soluble fraction (log2)” value was -0.183.
With “HMKVVEKHIVPQIQNPIRLQEYASSIFKTITTRSGIKKAIKKQLILLNRKPANTGDWIKEGQLLELLAEE”, the “soluble fraction (log2)” value is -0.242.
With “HMSLLTPLEEARIVIEELIIPQKLTLDLLPQNSQIRKLQHEIINHYRLKGISIGDGKNRRVRIYS”, the “soluble fraction (log2)” value is -0.133.
As for “HMTMKVTADILNMRSEASTNSDIVTKLKKDDELKVIEETKDDDGVTWVKVDFNGQVGFVSKEFLG”, the “soluble fraction (log2)” value is 0.284.
On to “HMNIAEIGQKVAQQRVALGISQERLAKLSDLSRSTIHHLEHGTLHEIGAAKLFKLLSLLDIQLK”, for which the “soluble fraction (log2)” value is -0.761.
For “HMTDAEQHEALLFKQVVDGLPQTLRDTFVLSRHAGMTYAEISAHTGTPIKTVESRMAKALELIAQRMR” the value was -0.67.
For “HMSKHAIQNELEKIEGIGKQTADSLLKEFKSVKKLRTLPLSEIEKVIGKSKATIVFEALHKDK” the value was 0.133; for “HMSTSLIEFTIDRNNSIANKMIMDANIPEDILVVMIKRNGDVFVPNGSTKILPGDILVLSGNKLKY”, -0.534.
Take “HMGLKWVYYTNIEPDGNKINNQKLYDILKQKFVYPVIISRDELDSMELKDLTYDSYIDVEGRYFKPYNLD”: the “soluble fraction (log2)” value is -2.23.
For “HMKDNPNETFERIAGKITRTLRSGPVRIQQLDLLFSESAGKVVDVLRAMAENGEVLIKDDTIQLNGNN”, the “soluble fraction (log2)” value came to 0.0379.
Take “HMMVIMRANATEPQIANVVAYVEKNGLNAHLSRGAERTVIGVVGDIRRVSKETFELMDGVDSVMRIS”: the “soluble fraction (log2)” value is -0.356.
For “HMEIPTPAELREKRIRMGLKQADVARMAGISQSMVARIESGSVDPRVSTLAKIVEVLQAAER” the value was -0.175; for “HMQVSEQVQRLLDALENDTLTTKELMDRLGLKHRPTFRKNYLLPSMKLGLVEMTIPDKPNSSRQKYRRRQ”, -0.65; for “HMSSDKVWSFEASGKQLQASYVAFENETVYLRASEDGSLLQFPLTDFGMKDQLVVLELYELSAKINRSN”, -0.49.
Turning to “HMKYRLLGENLQTIRKARGMKQQELADQIGINMQSLSKIERGLNYPTFETLEKIMNALGITPNELLSG”, the “soluble fraction (log2)” value was -0.461.
Take “HMDNEIMYPIQINGKVRAELFVSTERAMDKQYVLEQAKANEKIQGYLEGNRLVKEIFVPKRIVNLVIAP”: the “soluble fraction (log2)” value came out at 0.197.
Next, “HMAHSWEAIRVKLQQIIDEEDKTKPLNDDQIKEKLAEAGIPNLARRTVAKYRKLLNIPTARFRKR”: -0.313; “HMKYSYAELTKLQEQIAQDRNAPLTVPNALGIGLDERNNVIEITVNIADEAAAKAYYLQKYGDRISLKTTD”: 0.117.
Next, “HMEKLSMLKIKELFRLAIEMNLSHRQIAQSLNVSHTVVNRYLKRFKKSNLSYETLLKLGDKEIISALYEH”: -2.29; “HMEALSAREIEILQALETGASNRELAKMLFISEATVKTHLVHIYQKLGVGTRTAAITEARERRV”: -1.64.
With “HMTNISDYILEEYYKNVYPNDLNTKRIVIPNKYEEYAGKYTYITIARMVTYEHDAKKALKVLHQQAT”, the “soluble fraction (log2)” value is -0.287.
As to “HMKFTSEKDISLLELVKAKMGFVSNTKARNVIKIGQIMVSGKVIKIPSTLIKPGTEVELARRV”, the “soluble fraction (log2)” value was -1.66.
For “HMGTTKGVVDVTVPNGRASQHVKLVVIDDDGGRVVYDGTNAPGDRIVKSVSGSGNVRVQIYLNNALVQEQS”, the “soluble fraction (log2)” value is -0.2.
Regarding “HMSDPFSPTTTLKNRAKSVLSVDSFEDFKLFIKKMWQEKKEGVYQNPNVETWKDWDNISVKDAKILISLI”, the “soluble fraction (log2)” value was -0.474.
On to “HMATKVSSGATVRDVADLLGLSSAELIKKLMMMGEMATLTQTLTDESIKSIADEYDRKIEIVSAAE”, for which the “soluble fraction (log2)” value is 0.0948.
Next, “HMGQLVVHQIKGEASRLDKFLVVNIPKYSRSVWREMINNGSVQVNGRVVKPHLLVKEGDIITWSS”: -0.383.
With “HMTMNYYDILSIKRDATLEEIQKAYKEKSFQFHPDFNKGISDDSMFRIIKEAYETLSDTEKRNQYDASLNK”, the “soluble fraction (log2)” value came to 0.232.
Next, “HMDEYGEVQALQRAGQTSEALARADRHIAAHPNDPQMRFVKANLLSAGGRAGEAETLLVQLTRD”: -0.0234; “HMKKERITWDERLERFAKYITENESLPYPSSKEHAWFEENKALYDAGELESVRAQSFSFLLKILRRMNLI”: -0.278.
For “HMYSIDNPPDWLKNLPKGAIRIGVEVFNQVLSKADDEDRARMAAWSAIKAKYEKADDGQWQPKAA” the value was -0.0798; for “HMDGIIIPDVSGKSYAEAVATLNEKGFKVEKGEDAGSSLAKDLVSYTNPAAGNRAKSGATISVFVSTGANA”, 0.17.
As to “HMYKNLRAFRESLGMTQKDFAASLSIGLSTYNGYEVGAREPKSDFWIAVARKYGVTIDYLMGFSDDPHK”, the “soluble fraction (log2)” value is -1.11.
Next, “HMFDGTLSIYPNPSKGIFNLDLLNVKDGEYTITVDNLLGQEVYSEIRNVINSSSKTLDLSNLTKGV”: -0.173; “HMHNSQTIIDNIKRIANEQNISLSKLAVISGLGKNTITSMTAKTNIKIETLTAIAKSLNVSIHDLTGE”: -0.0839; “HMDSATDRVALKELLNTLSARERTIITLRYFSDQTQTQVAKSLGISQVQVSRLENAILQRLRKL”: -1.94.
For “HMNIIHNPSKNFIESDLNDLKEGMEIEHKKFGYGLIKSIDKTQNHQKAVVNFKLVGEKTLLLSFARLRIV” the value was -2.75.
For the sequence “HMAVRNTKQKQLVLSLLKNSGRPMTAGEIYRLAVQQYPNIAKSTVYRNLENLVSRGEVSQGMHQNGESFYS”, the “soluble fraction (log2)” value is -0.299.
As for “HMRERLPFGFAQSKKVVLLSTESDTPKVLSVNWPSLDLYAELKRVIGRAFLLEIVSEEEFQAQVSDAYQRD”, the “soluble fraction (log2)” value was -2.24.
On to “HMGDAVSRAYFALADDLLKGELTETVSEVLIRTRYELTSAQLQAVLHRIAQEGWAHKKPGYGWEFSAMLT”, for which the “soluble fraction (log2)” value was -1.83.
Next, “HMEFVEERRNRMLDYIGENKRADVPELARHFDVTEVTIRRDLLILEQDGKLIRTHGGAMINR”: -0.433.

These data come from the domain aggregation screens of Martell et al. (2025).
